What all share (type): biochemical, human
Substrate in data set [1]: CC(=O)N[C@H]1[C@H](O[C@@H](OCCOCCn2cc(CNC(=O)c3ccc(/N=N/c4ccc(N(C)C)cc4)cc3)nn2)[C@@](C)(Br)C(=O)NCCNc2cccc3c(S(=O)(=O)O)cccc23)O[C@H](CO)[C@@H](O)[C@@H]1O
The data set can be described thus: In vitro kinetic assay with hOGA. The following applies: other: PBS, 37° C., recombinant hOGA. The method, then: (§1) For some experiments, fluorescence kinetic assays were performed using a Varian Cary Eclipse Spectrophotometer set for 335/493 nm excitation/emission wavelengths. Slits were set at 10 nm and the detector was set on Medium voltage. Enzymatic reactions with human OGA were carried out in PBS at 37° C. and were started by addition of hOGA (WT, Full-length, expressed in E. coli. as previously described) in a total volume of 160 μL (Starna sub-micro Fluorometer cuvette). For measurements of rates using different concentrations of substrates, a hOGA concentration of 100 nM was used. For hOGA titration, 25 μM of Glyco-BABS were added to various concentration of hOGA. […] EDANS standard curve was established using endpoint fluorescence measurements of serial dilutions of EDANS in the relevant buffer using the same instrument parameters. Inner-Filter effect measurements were carried out in cuvette by measuring fluorescence of several concentrations of EDANS in presence of various concentrations of GlcNAc-BABS. Kinetics with Glc-BABS and GBA enzymes (GBA1 and GBA3 purchased from R&D Systems), kinetics with GALC (R&D systems) and Gal-BABS, pH stability, quenching efficiency, some inner-filter effect experiments and lysates experiments were carried out using a Molecular Devices SpectraMax i3× plate reader. […]

Substrate in data set [2]: CC(=O)N[C@H]1[C@H](O[C@@H](OCCOCCn2cc(CNC(=O)c3ccc(/N=N/c4ccc(N(C)C)cc4)cc3)nn2)[C@@](C)(O)C(=O)NCCNc2cccc3c(S(=O)(=O)O)cccc23)O[C@H](CO)[C@@H](O)[C@@H]1O
The data set can be described thus: In vitro kinetic assay with hOGA. The following applies: other: PBS, 37° C., recombinant hOGA. How it is done:
as §1

Substrate in data set [3]: CN(C)c1ccc(/N=N/c2ccc(C(=O)NCc3cn(CCOCCOC(CC(=O)NCCNc4cccc5c(S(=O)(=O)O)cccc45)O[C@@H]4O[C@H](CO)[C@@H](O)[C@H](O)[C@H]4O)nn3)cc2)cc1
The data set can be described thus: In vitro kinetic assay with GBA1. The note with it: other: 20 nM GBA1, initial rates.

B1: human O-GlcNAcase (hOGA) (Homo sapiens) (protein)
chain: MVQKESQATLEERESELSSNPAASAGASLEPPAAPAPGEDNPAGAGGAAVAGAAGGARRFLCGVVEGFYGRPWVMEQRKELFRRLQKWELNTYLYAPKDDYKHRMFWREMYSVEEAEQLMTLISAAREYEIEFIYAISPGLDITFSNPKEVSTLKRKLDQVSQFGCRSFALLFDDIDHNMCAADKEVFSSFAHAQVSITNEIYQYLGEPETFLFCPTEYCGTFCYPNVSQSPYLRTVGEKLLPGIEVLWTGPKVVSKEIPVESIEEVSKIIKRAPVIWDNIHANDYDQKRLFLGPYKGRSTELIPRLKGVLTNPNCEFEANYVAIHTLATWYKSNMNGVRKDVVMTDSEDSTVSIQIKLENEGSDEDIETDVLYSPQMALKLALTEWLQEFGVPHQYSSRQVAHSGAKASVVDGTPLVAAPSLNATTVVTTVYQEPIMSQGAALSGEPTTLTKEEEKKQPDEEPMDMVVEKQEETDHKNDNQILSEIVEAKMAEELKPMDTDKESIAESKSPEMSMQEDCISDIAPMQTDEQTNKEQFVPGPNEKPLYTAEPVTLEDLQLLADLFYLPYEHGPKGAQMLREFQWLRANSSVVSVNCKGKDSEKIEEWRSRAAKFEEMCGLVMGMFTRLSNCANRTILYDMYSYVWDIKSIMSMVKSFVQWLGCRSHSSAQFLIGDQEPWAFRGGLAGEFQRLLPIDGANDLFFQPPPLTPTSKVYTIRPYFPKDEASVYKICREMYDDGVGLPFQSQPDLIGDKLVGGLLSLSLDYCFVLEDEDGICGYALGTVDVTPFIKKCKISWIPFMQEKYTKPNGDKELSEAEKIMLSFHEEQEVLPETFLANFPSLIKMDIHKKVTDPSVAKSMMACLLSSLKANGSRGAFCEVRPDDKRILEFYSKLGCFEIAKMEGFPKDVVILGRSL
notes: started by addition of hOGA (WT, Full-length, expressed in E. coli. as previously described); made in house; host or cells: E. coli
In the case of B1, the kcat/Km in data set [1] was found to be 263 M⁻¹ s⁻¹; in data set [2], 519 M⁻¹ s⁻¹.

B2: GBA1 (Homo sapiens) (protein)
chain: ARPCIPKSFGYSSVVCVCNATYCDSFDPPTFPALGTFSRYESTRSGRRMELSMGPIQANHTGTGLLLTLQPEQKFQKVKGFGGAMTDAAALNILALSPPAQNLLLKSYFSEEGIGYNIIRVPMASCDFSIRTYTYADTPDDFQLHNFSLPEEDTKLKIPLIHRALQLAQRPVSLLASPWTSPTWLKTNGAVNGKGSLKGQPGDIYHQTWARYFVKFLDAYAEHKLQFWAVTAENEPSAGLLSGYPFQCLGFTPEHQRDFIARDLGPTLANSTHHNVRLLMLDDQRLLLPHWAKVVLTDPEAAKYVHGIAVHWYLDFLAPAKATLGETHRLFPNTMLFASEACVGSKFWEQSVRLGSWDRGMQYSHSIITNLLYHVVGWTDWNLALNPEGGPNWVRNFVDSPIIVDITKDTFYKQPMFYHLGHFSKFIPEGSQRVGLVASQKNDLDAVALMHPDGSAVVVVLNRSSKDVPLTIKDPAVGFLETISPGYSIHTYLWRRQ
notes: purchased R&D Systems
B2: in data set [3], the specificity constant (kcat/Km) was found to be 130 M⁻¹ s⁻¹.

As a reminder, the kcat/Km is the second-order rate constant that governs catalysis at low substrate concentration.

These data come from US11396522B2, “Bis-acetal-based substrates for imaging exo-glycosidase activity” (ALECTOS THERAPEUTICS INC., priority 2017, dated 2022).
